Results: patent US20100041068A1, “DEEPLY QUENCHED ENZYME SENSORS AND BINDING SENSORS” (priority 2006, published 2010)
Non-standard residues stand in square brackets, D forms with d. Primed or numbered codes have the meaning given here. No end group written: not given here. *: point of attachment. Acetyl(1-pyrenyl) = O=C(Cc1ccc2ccc3cccc4ccc1c2c34)*; Aoc′ = aminooctanoic acid linker; pS = N[C@@H](COP(=O)(O)O)C(=O)O; Abu = CC[C@H](N)C(=O)O; AEEA = NCCOCCOCC(=O)O; Ava = NCCCCC(=O)O; βAla = NCCC(=O)O

T1: 14-3-3τ (phospho-Ser binding domain) (UniProt P27348 1-245)
T1 sequence (looked up): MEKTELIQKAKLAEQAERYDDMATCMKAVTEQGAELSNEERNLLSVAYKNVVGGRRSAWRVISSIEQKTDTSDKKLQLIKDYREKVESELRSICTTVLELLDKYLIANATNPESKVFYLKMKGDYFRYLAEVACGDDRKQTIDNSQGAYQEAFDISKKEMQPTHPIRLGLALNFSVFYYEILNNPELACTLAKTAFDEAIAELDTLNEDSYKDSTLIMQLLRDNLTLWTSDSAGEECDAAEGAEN


Columns and labels:
[1] = target: T2, cAMP-dependent protein kinase (PKA) (Mus musculus, UniProt P05132); assay: Control: phosphorylation-induced change in fluorescence of pyrene-labeled peptides in the absence of quenching dye; assay type: biochemical, murine; set-up: made in house; conditions: 5 μM peptide, 10 nM PKA, 10 μM 14-3-3τ, 1 mM ATP
Procedure: 2 Identification of the lead pyrene-peptide/quencher pair. The eleven pyrene-substituted peptides (P1-P11 at 5 μM) were incubated with a 5-, 10-, 25-, and 50-fold molar excess of each of the ten lead quenchers in the presence of PKA, ATP, and the phospho-Ser binding domain 14-3-3τ. Several control experiments were performed, including conducting the assay in the absence of quenching agent. Under the latter conditions, only small enhancements in fluorescence (0-64%) were observed (Supporting Information). […] Consequently, the background was subtracted from all readings to establish a baseline upon which changes in fluorescence intensity could be quantified (Supporting Information).
Screening of Lead Quenching Dyes 1-10 with […]. […] The concentrations per well were: 10 nM PKA, 5 μM peptide, 10 μM 14-3-3τ, 1 mM ATP, 5 mM MgCl2, 2 mM DTT, and 25 μM, 50 μM, […] each of 10 different lead dyes in 50 mM Tris at pH 7.5 buffer. The HTS 7000 Bio Assay Reader was set in kinetic mode to monitor the progress of reaction (340 nm excitation filter, […] emission filter, 100 μs and 5 flashes).

peptide P2 = assay: Apparent KD of lead quencher dyes with peptide P2 (quenching of pyrene fluorescence); assay type: binding; conditions: 5 μM pyrene-labeled P2 peptide, dye 0.5-500 μM, 100 mM Tris HCl pH 75, inner filter corrected
Procedure: KD values were acquired for the set of the ten lead quenchers with peptide P2, in order to obtain a target range for the quencher:peptide ratios to be employed in the subsequent assays (vide infra). These apparent KD values were determined using the quenching of pyrene fluorescence as a barometer of peptide/quencher complex stability. […] An inner filter effect (at high dye concentrations) was corrected as previously described^8.
Acquisition of Apparent KD Values for Lead Quencher Dyes with Peptide P2 (FIG. 2).

[2] = target: 14-3-3τ (phospho-Ser binding domain) (UniProt P27348); assay: cell-based or functional assay
[3] = target: T2, cAMP-dependent protein kinase (PKA); assay: PKA inhibitor IC50, Deep Quench method (Ponceau S/peptide P2, 14-3-3τ); assay type: biochemical, murine; set-up: made in house; conditions: [ATP]=1 mM, 1 μM P2, 60 μM Ponceau S, 10 nM PKA
Procedure: This step was used to adjust for inter-assay variability and to verify that no significant drop in enzyme activity occurs over the course of the determinations. Subsequently, inhibitor was added at different concentrations. […] Fractional velocities (v/v0) were plotted against inhibitor concentration [I] and fit using the Sigma Plot version 8.02 software's four-parameter logistic nonlinear regression analysis.

[4] = target: T2, cAMP-dependent protein kinase (PKA); assay: PKA inhibitor IC50, standard radioactive ATP method; assay type: biochemical
peptide P5 = assay: Apparent KD of lead quencher/peptide pair, Rose Bengal with peptide P5; assay type: binding
[5] = target: phosphorylated P5 peptide AcDap(Pyr)RTGRRFS(PO3^2−)YP-amide; assay: Apparent KD of Rose Bengal with phosphorylated P5 peptide; assay type: binding
[6] = target: T1, 14-3-3τ (phospho-Ser binding domain); assay: cell-based or functional assay

| Molecule | % Fluorescence Enhancement [1] | Kd (peptide P2) | also measured |
| --- | --- | --- | --- |
| Ac-Gly-Arg-Thr-Dap(Pyr)-Arg-Arg-Phe-Ser-Tyr-Pro-amide [Peptide P3] | 19% | – | – |
| Pyr-miniPEG™-Gly-Arg-Thr-Gly-Arg-Arg-Phe-Ser-Tyr-Pro-amide ({Acetyl(1-pyrenyl)-AEEA}-GRTGRRFSYP-NH2; SMILES C[C@@H](O)[C@H](NC(=O)[C@H](CCCNC(=N)N)NC(=O)CNC(=O)COCCOCCNC(=O)Cc1ccc2ccc3cccc4ccc1c2c34)C(=O)NCC(=O)N[C@@H](CCCNC(=N)N)C(=O)N[C@@H](CCCNC(=N)N)C(=O)N[C@@H](Cc1ccccc1)C(=O)N[C@@H](CO)C(=O)N[C@@H](Cc1ccc(O)cc1)C(=O)N1CCC[C@H]1C(N)=O) [Peptide P11] | 38% | – | – |
| Cc1cc(-c2ccc(/N=N/c3c(S(=O)(=O)O)cc4cc(S(=O)(=O)O)cc(N)c4c3O)c(C)c2)ccc1/N=N/c1c(S(=O)(=O)O)cc2cc(S(=O)(=O)O)cc(N)c2c1O [Peptide D48, Trypan Blue] | – | 11.9 ± 3.6 µM | – |
| phosphorylated peptide P4, Ac-GRDap(Pyr)GRRFSYP-amide after phosphorylation of Ser by PKA | – | – | % Fluorescence Enhancement (phosphorylation-induced, PKA + ATP + 14-3-3τ, no quenching dye) [2]: 40% |
| Pyr-Ava-Gly-Arg-Thr-Gly-Arg-Arg-Phe-Ser-Tyr-Pro-amide ({Acetyl(1-pyrenyl)-Ava}-GRTGRRFSYP-NH2; SMILES C[C@@H](O)[C@H](NC(=O)[C@H](CCCNC(=N)N)NC(=O)CNC(=O)CCCCNC(=O)Cc1ccc2ccc3cccc4ccc1c2c34)C(=O)NCC(=O)N[C@@H](CCCNC(=N)N)C(=O)N[C@@H](CCCNC(=N)N)C(=O)N[C@@H](Cc1ccccc1)C(=O)N[C@@H](CO)C(=O)N[C@@H](Cc1ccc(O)cc1)C(=O)N1CCC[C@H]1C(N)=O) [Peptide P8] | 31% | – | – |
| Pyr-BAla-Gly-Arg-Thr-Gly-Arg-Arg-Phe-Ser-Tyr-Pro-amide ({Acetyl(1-pyrenyl)}-[βAla]GRTGRRFSYP-NH2; SMILES C[C@@H](O)[C@H](NC(=O)[C@H](CCCNC(=N)N)NC(=O)CNC(=O)CCNC(=O)Cc1ccc2ccc3cccc4ccc1c2c34)C(=O)NCC(=O)N[C@@H](CCCNC(=N)N)C(=O)N[C@@H](CCCNC(=N)N)C(=O)N[C@@H](Cc1ccccc1)C(=O)N[C@@H](CO)C(=O)N[C@@H](Cc1ccc(O)cc1)C(=O)N1CCC[C@H]1C(N)=O) [Peptide P6] | 49% | – | – |
| Ac-Gly-Arg-Thr-Gly-Arg-Arg-Phe-Ser-Dap(Pyr)-Pro-amide [Peptide P1] | 0% | – | – |
| Pyr-Aoc-Gly-Arg-Thr-Gly-Arg-Arg-Phe-Ser-Tyr-Pro-amide ({Acetyl(1-pyrenyl)-Aoc′}-GRTGRRFSYP-NH2) [Peptide P10] | 39% | – | – |
| Reactive Blue 2 [Peptide D6] | – | 19.6 ± 3.4 µM | – |
| phosphorylated peptide P5, AcDap(Pyr)RTGRRFS(PO3^2-)YP-amide | – | – | % Fluorescence Enhancement (phosphorylation-induced, PKA + ATP + 14-3-3τ, no quenching dye) [2]: 64%; Fluorescence Change (phosphorylation-induced fold-change), P5/Rose Bengal (1:5), plate reader - bottom read [2]: 8 fold; Fluorescence Change (phosphorylation-induced fold-change), P5/Rose Bengal (1:5), plate reader - top read [2]: 30 fold; Fluorescence Change (phosphorylation-induced fold-change), P5/Rose Bengal (1:5), spectrofluorimeter [2]: 64 fold |
| Ac-Gly-Arg-Dap(Pyr)-Gly-Arg-Arg-Phe-Ser-Tyr-Pro-amide [Peptide P4] | 40% | – | – |
| GRTGRRNAI-NH2 (C-terminus assumed) [PKI 14-22] | – | – | IC50 [3]: 1.1 ± 0.1 µM; IC50 [4]: 1.6 ± 0.2 µM |
| Cc1cc(-c2ccc(/N=N/c3ccc4c(S(=O)(=O)O)cc(S(=O)(=O)O)c(N)c4c3O)c(C)c2)ccc1/N=N/c1ccc2c(S(=O)(=O)O)cc(S(=O)(=O)O)c(N)c2c1O [Peptide D3, Evans Blue] | – | 2.8 ± 0.8 µM | – |
| Nc1ccc(N=Nc2ccc(-c3ccc(N=Nc4c(S(=O)(=O)O)cc5cc(S(=O)(=O)O)c(N=Nc6ccccc6)c(O)c5c4N)cc3)cc2)c(N)c1 [Peptide D34, Chlorazol Black E] | – | 7.7 ± 1.5 µM | – |
| O=S(=O)(O)c1ccc(/N=N/c2ccc(/N=N/c3c(O)c(S(=O)(=O)O)cc4cc(S(=O)(=O)O)ccc34)c(S(=O)(=O)O)c2)cc1 [Peptide D42, Ponceau S] | – | 11.2 ± 2.7 µM | – |
| phosphorylated peptide P2, Ac-GRTGRRDap(Pyr)SYP-amide after phosphorylation of Ser by PKA | – | – | % Fluorescence Enhancement (phosphorylation-induced, PKA + ATP + 14-3-3τ, no quenching dye) [2]: 51%; Fluorescence Change (phosphorylation-induced fold-change), P2/Ponceau S (1:50), plate reader - bottom read [2]: 7 fold; Fluorescence Change (phosphorylation-induced fold-change), P2/Ponceau S (1:50), plate reader - top read [2]: 15 fold; Fluorescence Change (phosphorylation-induced fold-change), P2/Ponceau S (1:50), spectrofluorimeter [2]: 21 fold |
| Pyr-Abu-Gly-Arg-Thr-Gly-Arg-Arg-Phe-Ser-Tyr-Pro-amide ({Acetyl(1-pyrenyl)}-[Abu]GRTGRRFSYP-NH2; SMILES CC[C@H](NC(=O)Cc1ccc2ccc3cccc4ccc1c2c34)C(=O)NCC(=O)N[C@@H](CCCNC(=N)N)C(=O)N[C@H](C(=O)NCC(=O)N[C@@H](CCCNC(=N)N)C(=O)N[C@@H](CCCNC(=N)N)C(=O)N[C@@H](Cc1ccccc1)C(=O)N[C@@H](CO)C(=O)N[C@@H](Cc1ccc(O)cc1)C(=O)N1CCC[C@H]1C(N)=O)[C@@H](C)O) [Peptide P7] | 47% | – | – |
| O=[N+]([O-])c1ccc2c(N=Nc3ccc4ccccc4c3O)c(O)cc(S(=O)(=O)O)c2c1 [Peptide D18, Eriochrome Black T] | – | 14.3 ± 3.3 µM | – |
| phosphorylated peptide P3, Ac-GRTDap(Pyr)RRFSYP-amide after phosphorylation of Ser by PKA | – | – | % Fluorescence Enhancement (phosphorylation-induced, PKA + ATP + 14-3-3τ, no quenching dye) [2]: 19% |
| O=C(O)c1c(Cl)c(Cl)c(Cl)c(Cl)c1-c1c2cc(I)c(=O)c(I)c-2oc2c(I)c(O)c(I)cc12 [Peptide D43, Rose Bengal] | – | 7.5 ± 1.6 µM | Kd (peptide P5; Rose Bengal with unphosphorylated AcDap(Pyr)RTGRRFSYP-amide (P5)): 0.4 ± 0.03 µM; Kd (peptide P5; Rose Bengal with unphosphorylated peptide P5): 0.4 ± 0.03 µM; Kd [5]: 0.21 ± 0.04 µM |
| O=C(O)c1nn(-c2ccc(S(=O)(=O)O)cc2)c(O)c1N=Nc1ccc(S(=O)(=O)O)cc1 [Peptide D47, Tartrazine] | – | 15 ± 2.1 µM | – |
| GRTGRRF[pS]YP (also: 7-diethylaminocoumarin-3-carboxylic acid label, site not given here) [coumarin-peptide P12 after phosphorylation] | – | – | enhancement in fluorescence (16 µM P12, 10 µM 14-3-3, 30 µM Acid Green 27) [6]: 225 fold |
